Assay results as given in patent US20230374534.
Numbering of substitutions follows the chain as printed.

B1: Thioredoxin h2 (Trx-h2), purified recombinant protein (protein)
chain: MGGALSTVFGSGEDATAAGTESEPSRVLKFSSSARWQLHFNEIKESNKLLVVDFSASWCGPCRMIEPAIHAMADKFNDVDFVKLDVDELPDVAKEFNVTAMPTFVLVKRGKEIERIIGAKKDELEKKVSKLRA
B2: Trx-h2(C/S), redox-insensitive point mutant of Trx-h2, recombinant (protein)
chain: B1 chain with C59S, C62S
B3: Trx-h2, endogenous protein in Arabidopsis plants (protein)
chain: GGALSTVFGSGEDATAAGTESEPSRVLKFSSSARWQLHFNEIKESNKLLVVDFSASWCGPCRMIEPAIHAMADKFNDVDFVKLDVDELPDVAKEFNVTAMPTFVLVKRGKEIERIIGAKKDELEKKVSKLRA

Tests used:
[1] = molecular target: His-CBF1 (histidine-tagged C-repeat-binding transcription factor 1), recombinant
[2] = molecular target: CBF1-Myc (from CBF1-Myc^OE Arabidopsis plants)
Sequence of CBF1-Myc (from CBF1-Myc^OE Arabidopsis plants) (chain, as listed by the source): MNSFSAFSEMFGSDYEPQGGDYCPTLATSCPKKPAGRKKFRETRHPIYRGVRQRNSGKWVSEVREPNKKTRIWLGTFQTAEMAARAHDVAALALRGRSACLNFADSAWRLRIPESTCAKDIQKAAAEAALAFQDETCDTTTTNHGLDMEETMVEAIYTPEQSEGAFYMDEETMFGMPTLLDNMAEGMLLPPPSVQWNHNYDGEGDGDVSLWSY

Sequence of His-CBF1 (histidine-tagged C-repeat-binding transcription factor 1), recombinant (chain, as listed by the source): as above

| Protein | EMSA: mobility shift of the biotin-labeled COR15a promoter probe with His-CBF1 [1] | dissociation of CBF1 oligomers into monomers (Trx system with NADPH, Trx reductase and 5 µM Trx-h2; non-reducing SDS-PAGE, western blot) [1] | cold-induced structural switching of CBF1-Myc oligomers in planta (non-reducing gel, CBF1-Myc^OE/Col-0 against CBF1-Myc^OE/trx-h2) [2] |
| --- | --- | --- | --- |
| B1 | Treatment with DTT or Trx-h2 ... induced a distinct mobility shift in the probe interacting with His-CBF1 | reduced and dissociated CBF1 oligomers into monomers | – |
| B2 | but not H2O2 or Trx-h2(C/S), induced a distinct mobility shift | – | – |
| B3 | – | – | gradually dissociated into small oligomers and monomers by cold (lanes 2-4). By contrast, no structural change was detected in CBF1 extracted from CBF1-Myc^OE/trx-h2 plants |
